Source: IntAct's records for PubMed 20840750

B1: Cryptochrome-2 (Mus musculus), Q9R194 (parent)
chain: MAAAAVVAATVPAQSMGADGASSVHWFRKGLRLHDNPALLAAVRGARCVRCVYILDPWFAASSSVGINRWRFLLQSLEDLDTSLRKLNSRLFVVRGQPADVFPRLFKEWGVTRLTFEYDSEPFGKERDAAIMKMAKEAGVEVVTENSHTLYDLDRIIELNGQKPPLTYKRFQALISRMELPKKPAVAVSSQQMESCRAEIQENHDDTYGVPSLEELGFPTEGLGPAVWQGGETEALARLDKHLERKAWVANYERPRMNANSLLASPTGLSPYLRFGCLSCRLFYYRLWDLYKKVKRNSTPPLSLFGQLLWREFFYTAATNNPRFDRMEGNPICIQIPWDRNPEALAKWAEGKTGFPWIDAIMTQLRQEGWIHHLARHAVACFLTRGDLWVSWESGVRVFDELLLDADFSVNAGSWMWLSCSAFFQQFFHCYCPVGFGRRTDPSGDYIRRYLPKLKGFPSRYIYEPWNAPESVQKAAKCIIGVDYPRPIVNHAETSRLNIERMKQIYQQLSRYRGLCLLASVPSCVEDLSHPVAEPGSSQAGSISNTGPRALSSGPASPKRKLEAAEEPPGEELTKRARVTEMPTQEPASKDS

Variants of: B1
Conditions: with per2_mouse Per2, O54943
Chain of per2_mouse Per2, O54943 (O54943 whole entry): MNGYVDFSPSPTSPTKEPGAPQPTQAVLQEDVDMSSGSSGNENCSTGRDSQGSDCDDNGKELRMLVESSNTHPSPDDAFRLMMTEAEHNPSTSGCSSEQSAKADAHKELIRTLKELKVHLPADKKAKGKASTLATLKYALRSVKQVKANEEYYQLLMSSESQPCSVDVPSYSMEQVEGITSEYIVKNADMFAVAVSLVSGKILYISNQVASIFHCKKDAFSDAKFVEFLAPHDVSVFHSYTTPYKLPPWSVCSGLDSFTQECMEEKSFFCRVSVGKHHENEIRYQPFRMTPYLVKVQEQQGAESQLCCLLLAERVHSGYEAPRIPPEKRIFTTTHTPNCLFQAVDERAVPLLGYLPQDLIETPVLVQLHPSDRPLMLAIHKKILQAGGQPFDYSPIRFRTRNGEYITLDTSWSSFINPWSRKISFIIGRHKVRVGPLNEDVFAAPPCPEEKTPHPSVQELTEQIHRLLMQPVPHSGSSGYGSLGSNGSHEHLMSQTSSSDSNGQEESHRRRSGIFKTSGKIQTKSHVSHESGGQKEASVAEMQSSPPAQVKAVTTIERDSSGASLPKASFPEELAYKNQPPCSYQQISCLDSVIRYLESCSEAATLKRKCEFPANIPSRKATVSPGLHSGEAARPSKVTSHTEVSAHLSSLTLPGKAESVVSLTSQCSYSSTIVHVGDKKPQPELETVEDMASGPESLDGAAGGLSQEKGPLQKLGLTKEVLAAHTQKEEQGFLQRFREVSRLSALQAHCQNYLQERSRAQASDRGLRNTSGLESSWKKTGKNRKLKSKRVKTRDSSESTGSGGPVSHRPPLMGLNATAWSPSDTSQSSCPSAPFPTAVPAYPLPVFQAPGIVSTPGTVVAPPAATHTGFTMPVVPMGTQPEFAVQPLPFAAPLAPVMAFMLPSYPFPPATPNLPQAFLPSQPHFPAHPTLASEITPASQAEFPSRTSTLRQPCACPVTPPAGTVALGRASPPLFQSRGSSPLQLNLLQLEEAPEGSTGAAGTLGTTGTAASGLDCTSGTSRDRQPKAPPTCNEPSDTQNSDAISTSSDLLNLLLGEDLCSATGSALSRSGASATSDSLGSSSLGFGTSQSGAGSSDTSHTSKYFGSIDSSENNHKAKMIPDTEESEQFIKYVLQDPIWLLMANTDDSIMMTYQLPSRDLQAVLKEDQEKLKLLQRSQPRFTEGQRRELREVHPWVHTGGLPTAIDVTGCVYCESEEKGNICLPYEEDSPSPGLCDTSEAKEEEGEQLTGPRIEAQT

Effect of a mutation on the interaction, decreasing interaction:
MAAAAVVAATVPAQSMGADGASSVHWFRKGLRLHDNPALLAAVRGARCVRCVYILDPWFAASSSVGINRWRFLLQSLEDLDTSLRKLNSRLFVVRGQPADVFPRLFKEWGVTRLTFEYDSEPFGKERDAAIMKMAKEAGVEVVTENSHTLYDLDRIIELNGQKPPLTYKRFQALISRMELPKKPAVAVSSQQMESCRAEIQENHDDTYGVPSLEELGFPTEGLGPAVWQGGETEALARLDKHLERKAWVANYERPRMNANSLLASPTGLSPYLRFGCLSCRLFYYRLWDLYKKVKRNSTPPLSLFGQLLWREFFYTAATNNPRFDRMEGNPICIQIPWDRNPEALAKWAEGKTGFPWIDAIMTQLRQEGWIHHLARHAVACFLTRGDLWVSWESGVRVFDELLLDADFSVNAGSWMWLSCSAFFQQFFHCYCPVGFGRRTDPSGDYIRRYLPKLKGFPSRYIYEPWNAPESVQKAAKCIIGVDYPRPIVNHAETSRLNTERMRQTYQQPSRYRGLCLLASVPSCVEDLSHPVAEPGSSQAGSISNTGPRALSSGPASPKRKLEAAEEPPGEELTKRARVTEMPTQEPASKDS [I499T;K503R;I505T;L509P]
MAAAAVVAATVPAQSMGADGASSVHWFRKGLRLHDNPALLAAVRGARCVRCVYILDPWFAASSSVGINRWRFLLQSLEDLDTSLRKLNSRLFVVRGQPADVFPRLFKEWGVTRLTFEYDSEPFGKERDAAIMKMAKEAGVEVVTENSHTLYDLDRIIELNGQKPPLTYKRFQALISRMELPKKPAVAVSSQQMESCRAEIQENHDDTYGVPSLEELGFPTEGLGPAVWQGGETEALARLDKHLERKAWVANYERPRMNANSLLASPTGLSPYLRFGCLSCRLFYYRLWDLYKKVKRNSTPPLSLFGQLLWREFFYTAATNNPRFDRMEGNPICIQIPWDRNPEALAKWAEGKTGFPWIDAIMTQLRQEGWIHHLARHAVACFLTRGDLWVSWESGVRVFDELLLDADFSVNAGSWMWLSCSAFFQQFFHCYCPVGFGRRTDPSGDYIRRYLPKLKGFPSRYIYEPWNAPESVQKAAKCIIGVDYPRPIVNHAGTSRPNIERMRQTYQQPSRYRGLCLLASVPSCVEDLSHPVAEPGSSQAGSISNTGPRALSSGPASPKRKLEAAEEPPGEELTKRARVTEMPTQEPASKDS [E493G;L497P;K503R;I505T;L509P]
MAAAAVVAATVPAQSMGADGASSVHWFRKGLRLHDNPALLAAVRGARCVRCVYILDPWFAASSSVGINRWRFLLQSLEDLDTSLRKLNSRLFVVRGQPADVFPRLFKEWGVTRLTFEYDSEPFGKERDAAIMKMAKEAGVEVVTENSHTLYDLDRIIELNGQKPPLTYKRFQALISRMELPKKPAVAVSSQQMESCRAEIQENHDDTYGVPSLEELGFPTEGLGPAVWQGGETEALARLDKHLERKAWVANYERPRMNANSLLASPTGLSPYLRFGCLSCRLFYYRLWDLYKKVKRNSTPPLSLFGQLLWREFFYTAATNNPRFDRMEGNPICIQIPWDRNPEALAKWAEGKTGFPWIDAIMTQLRQEGWIHHLARHAVACFLTRGDLWVSWESGVRVFDELLLDADFSVNAGSWMWLSCSAFFQQFFHCYCPVGFGRRTDPSGDYIRRYLPKLKGFPSRYIYEPWNAPESVQKAAKCIIGVDYPRPIVNHAETSRLNTEQMKQIYQQLSRYRGLCLLASVPSCVEDLSHPVAEPGSSQAGSISNTGPRALSSGPASPKRKLEAAEEPPGEELTKRARVTEMPTQEPASKDS [I499T;R501Q]
MAAAAVVAATVPAQSMGADGASSVHWFRKGLRLHDNPALLAAVRGARCVRCVYILDPWFAASSSVGINRWRFLLQSLEDLDTSLRKLNSRLFVVRGQPADVFPRLFKEWGVTRLTFEYDSEPFGKERDAAIMKMAKEAGVEVVTENSHTLYDLDRIIELNGQKPPLTYKRFQALISRMELPKKPAVAVSSQQMESCRAEIQENHDDTYGVPSLEELGFPTEGLGPAVWQGGETEALARLDKHLERKAWVANYERPRMNANSLLASPTGLSPYLRFGCLSCRLFYYRLWDLYKKVKRNSTPPLSLFGQLLWREFFYTAATNNPRFDRMEGNPICIQIPWDRNPEALAKWAEGKTGFPWIDAIMTQLRQEGWIHHLARHAVACFLTRGDLWVSWESGVRVFDELLLDADFSVNAGSWMWLSCSAFFQQFFHCYCPVGFGRRTDPSGDYIRRYLPKLKGFPSRYIYEPWNAPESVQKAAKCIIGVDYPRPIVNHAETSRLNIEQMRQIYQQLSRYRGLCLLASVPSCVEDLSHPVAEPGSSQAGSISNTGPRALSSGPASPKRKLEAAEEPPGEELTKRARVTEMPTQEPASKDS [R501Q;K503R]
MAAAAVVAATVPAQSMGADGASSVHWFRKGLRLHDNPALLAAVRGARCVRCVYILDPWFAASSSVGINRWRFLLQSLEDLDTSLRKLNSRLFVVRGQPADVFPRLFKEWGVTRLTFEYDSEPFGKERDAAIMKMAKEAGVEVVTENSHTLYDLDRIIELNGQKPPLTYKRFQALISRMELPKKPAVAVSSQQMESCRAEIQENHDDTYGVPSLEELGFPTEGLGPAVWQGGETEALARLDKHLERKAWVANYERPRMNANSLLASPTGLSPYLRFGCLSCRLFYYRLWDLYKKVKRNSTPPLSLFGQLLWREFFYTAATNNPRFDRMEGNPICIQIPWDRNPEALAKWAEGKTGFPWIDAIMTQLRQEGWIHHLARHAVACFLTRGDLWVSWESGVRVFDELLLDADFSVNAGSWMWLSCSAFFQQFFHCYCPVGFGRRTDPSGDYIRRYLPKLKGFPSRYIYEPWNAPESVQKAAKCIIGVDYPRPIVNHAETGRPNTERMRQTYQQPSRYRGLCLLASVPSCVEDLSHPVAEPGSSQAGSISNTGPRALSSGPASPKRKLEAAEEPPGEELTKRARVTEMPTQEPASKDS [S495G;L497P;I499T;K503R;I505T;L509P]
MAAAAVVAATVPAQSMGADGASSVHWFRKGLRLHDNPALLAAVRGARCVRCVYILDPWFAASSSVGINRWRFLLQSLEDLDTSLRKLNSRLFVVRGQPADVFPRLFKEWGVTRLTFEYDSEPFGKERDAAIMKMAKEAGVEVVTENSHTLYDLDRIIELNGQKPPLTYKRFQALISRMELPKKPAVAVSSQQMESCRAEIQENHDDTYGVPSLEELGFPTEGLGPAVWQGGETEALARLDKHLERKAWVANYERPRMNANSLLASPTGLSPYLRFGCLSCRLFYYRLWDLYKKVKRNSTPPLSLFGQLLWREFFYTAATNNPRFDRMEGNPICIQIPWDRNPEALAKWAEGKTGFPWIDAIMTQLRQEGWIHHLARHAVACFLTRGDLWVSWESGVRVFDELLLDADFSVNAGSWMWLSCSAFFQQFFHCYCPVGFGRRTDPSGDYIRRYLPKLKGFPSRYIYEPWNAPESVQKAAKCIIGVDYPRPIVNHAETSRLNTEQMKQTYQQPSRYRGLCLLASVPSCVEDLSHPVAEPGSSQAGSISNTGPRALSSGPASPKRKLEAAEEPPGEELTKRARVTEMPTQEPASKDS [I499T;R501Q;I505T;L509P]
MAAAAVVAATVPAQSMGADGASSVHWFRKGLRLHDNPALLAAVRGARCVRCVYILDPWFAASSSVGINRWRFLLQSLEDLDTSLRKLNSRLFVVRGQPADVFPRLFKEWGVTRLTFEYDSEPFGKERDAAIMKMAKEAGVEVVTENSHTLYDLDRIIELNGQKPPLTYKRFQALISRMELPKKPAVAVSSQQMESCRAEIQENHDDTYGVPSLEELGFPTEGLGPAVWQGGETEALARLDKHLERKAWVANYERPRMNANSLLASPTGLSPYLRFGCLSCRLFYYRLWDLYKKVKRNSTPPLSLFGQLLWREFFYTAATNNPRFDRMEGNPICIQIPWDRNPEALAKWAEGKTGFPWIDAIMTQLRQEGWIHHLARHAVACFLTRGDLWVSWESGVRVFDELLLDADFSVNAGSWMWLSCSAFFQQFFHCYCPVGFGRRTDPSGDYIRRYLPKLKGFPSRYIYEPWNAPESVQKAAKCIIGVDYPRPIVNHAETGRPNTEQMRQTYQQPSRYRGLCLLASVPSCVEDLSHPVAEPGSSQAGSISNTGPRALSSGPASPKRKLEAAEEPPGEELTKRARVTEMPTQEPASKDS [S495G;L497P;I499T;R501Q;K503R;I505T;L509P]
MAAAAVVAATVPAQSMGADGASSVHWFRKGLRLHDNPALLAAVRGARCVRCVYILDPWFAASSSVGINRWRFLLQSLEDLDTSLRKLNSRLFVVRGQPADVFPRLFKEWGVTRLTFEYDSEPFGKERDAAIMKMAKEAGVEVVTENSHTLYDLDRIIELNGQKPPLTYKRFQALISRMELPKKPAVAVSSQQMESCRAEIQENHDDTYGVPSLEELGFPTEGLGPAVWQGGETEALARLDKHLERKAWVANYERPRMNANSLLASPTGLSPYLRFGCLSCRLFYYRLWDLYKKVKRNSTPPLSLFGQLLWREFFYTAATNNPRFDRMEGNPICIQIPWDRNPEALAKWAEGKTGFPWIDAIMTQLRQEGWIHHLARHAVACFLTRGDLWVSWESGVRVFDELLLDADFSVNAGSWMWLSCSAFFQQFFHCYCPVGFGRRTDPSGDYIRRYLPKLKGFPSRYIYEPWNAPESVQKAAKCIIGVDYPRPIVNHAETSRPNTEQMKQTYQQPSRYRGLCLLASVPSCVEDLSHPVAEPGSSQAGSISNTGPRALSSGPASPKRKLEAAEEPPGEELTKRARVTEMPTQEPASKDS [L497P;I499T;R501Q;I505T;L509P]
